The source of these data is patent publication US20220169728A1 (AB THERAPEUTICS, published 2022).

The chains are these.
T1: CD55 (UniProt P08174 35-353, limits assumed)
T1 construct: whole, on cells; also called CD55 on Rituximab resistant Raji cells (RRCL)
T1 sequence (looked up): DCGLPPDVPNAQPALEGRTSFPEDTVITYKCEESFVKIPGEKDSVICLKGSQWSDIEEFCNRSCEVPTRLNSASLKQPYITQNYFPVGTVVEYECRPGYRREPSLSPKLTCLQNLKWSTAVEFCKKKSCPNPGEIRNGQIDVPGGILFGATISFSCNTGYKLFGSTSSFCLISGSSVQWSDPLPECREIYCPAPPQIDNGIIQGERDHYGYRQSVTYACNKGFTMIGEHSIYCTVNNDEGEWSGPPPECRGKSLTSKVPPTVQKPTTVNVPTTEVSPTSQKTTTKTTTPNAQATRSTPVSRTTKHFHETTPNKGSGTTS

B1: CD20/CD3 BsMab with common VL (SEQ ID NO: 3) H33G (bispecific antibody, V domains shown)
VH 1: QVQLQQPGAELVKPGASVKMSCKASGYTFTSYNMHWVKQTPGRGLEWIGAIYPGNGDTSYNQKFKGKATLTADKSSSTAYMQLSSLRSEDSAVYYCARSTYYGGDWYFNVWGAGTTVTVSA
VH 2: EVQLQESGAELARPGASVKMSCKASGYTFTSYTMHWVKQRPGEGLEWIGYINPSSGYTKYNQKFKDKATLTADKSSSTAYMELSSLTSEDSAVYYCARWQDYDVYFDYWGEGTTLTVSS
VL: QIVLSQSPAILSASPGEKVTMTCRASSSVSYIGWFQQKPGSSPKPWIYATSNLASGVPVRFSGSGSGTSYSLTISRVEAEDAATYYCQQWTSNPPTFGGGTKLEIKR
B2: CD20/CD3 BsMab with common VL (SEQ ID NO: 3) Q88G (bispecific antibody, V domains shown)
VH 1: B1 VH 1
VH 2: B1 VH 2
VL: B1 VL with G33H, Q88G
B3: CD20/CD3 BsMab with common VL (SEQ ID NO: 3) H33D (bispecific antibody, V domains shown)
VH 1: B1 VH 1
VH 2: B1 VH 2
VL: B1 VL with G33D
B4: CD20/CD3 BsMab with common VL (SEQ ID NO: 3) N93C (bispecific antibody, V domains shown)
VH 1: B1 VH 1
VH 2: B1 VH 2
VL: B1 VL with G33H, N93C
B5: CD20/CD3 BsMab with common VL (SEQ ID NO: 3) Q88Y (bispecific antibody, V domains shown)
VH 1: B1 VH 1
VH 2: B1 VH 2
VL: B1 VL with G33H, Q88Y
B6: CD20/CD3 BsMab with common VL (SEQ ID NO: 3) Q88P (bispecific antibody, V domains shown)
VH 1: B1 VH 1
VH 2: B1 VH 2
VL: B1 VL with G33H, Q88P
B7: CD20/CD3 BsMab with common VL (SEQ ID NO: 3) H33M (bispecific antibody, V domains shown)
VH 1: B1 VH 1
VH 2: B1 VH 2
VL: B1 VL with G33M
B8: CD20/CD3 BsMab with common VL (SEQ ID NO: 3) Q88V (bispecific antibody, V domains shown)
VH 1: B1 VH 1
VH 2: B1 VH 2
VL: B1 VL with G33H, Q88V
B9: CD20/CD3 BsMab with common VL (SEQ ID NO: 3) Q88H (bispecific antibody, V domains shown)
VH 1: B1 VH 1
VH 2: B1 VH 2
VL: B1 VL with G33H, Q88H
B10: CD20/CD3 BsMab with common VL (SEQ ID NO: 3) Q88M (bispecific antibody, V domains shown)
VH 1: B1 VH 1
VH 2: B1 VH 2
VL: B1 VL with G33H, Q88M
B11: CD20/CD3 BsMab with common VL (SEQ ID NO: 3) H33V (bispecific antibody, V domains shown)
VH 1: B1 VH 1
VH 2: B1 VH 2
VL: B1 VL with G33V
B12: CD20/CD3 BsMab with common VL (SEQ ID NO: 3) H33T (bispecific antibody, V domains shown)
VH 1: B1 VH 1
VH 2: B1 VH 2
VL: B1 VL with G33T
B13: CD20/CD3 BsMab with common VL (SEQ ID NO: 3) H33E (bispecific antibody, V domains shown)
VH 1: B1 VH 1
VH 2: B1 VH 2
VL: B1 VL with G33E
B14: CD20/CD3 BsMab with common VL (SEQ ID NO: 3) Q88L (bispecific antibody, V domains shown)
VH 1: B1 VH 1
VH 2: B1 VH 2
VL: B1 VL with G33H, Q88L
B15: CD20/CD3 BsMab with common VL (SEQ ID NO: 3) H33S (bispecific antibody, V domains shown)
VH 1: B1 VH 1
VH 2: B1 VH 2
VL: B1 VL with G33S
B16: CD20/CD3 BsMab with common VL (SEQ ID NO: 3) N93L (bispecific antibody, V domains shown)
VH 1: B1 VH 1
VH 2: B1 VH 2
VL: B1 VL with G33H, N93L
B17: anti-CD55 antibody with CD55VH (SEQ ID NO: 14) N52C and VL (SEQ ID NO: 15) (antibody, V domains shown)
VH: QVKLQESGGGLVQPGGSLKLSCAASGFTFSGYGMSWIRQTPDKRLEWVATICSGGSYTYYSDSVKGRFTISRDNVKNTLYLQMSSLKSEDTAMYYCARRNGTLYYYLMDYWGRGTLVTVSS
VL: QSVLTQPPSASGSPGQSVTISCTGTSSDVGGYNYVSWYQQHPGKAPKFMIYDVSKRPSGVSNRFSGSKSGNTASLTISGVQAEDEADYYCSSYTSASTVIFGGGTKLTVL
notes: also called Test 3
B18: anti-CD55 antibody with CD55VH (SEQ ID NO: 14) N52E and VL (SEQ ID NO: 15) (antibody, V domains shown)
VH: B17 VH with C52E
VL: B17 VL
notes: also called Test 6
B19: anti-CD55 antibody with CD55VH (SEQ ID NO: 14) N52M and VL (SEQ ID NO: 15) (antibody, V domains shown)
VH: B17 VH with C52M
VL: B17 VL
notes: also called Test 8
B20: anti-CD55 antibody with CD55VH (SEQ ID NO: 14) N52Y and VL (SEQ ID NO: 15) (antibody, V domains shown)
VH: B17 VH with C52Y
VL: B17 VL
notes: also called Test 9
B21: anti-CD55 antibody with CD55VH (SEQ ID NO: 14) N52G and VL (SEQ ID NO: 15) (antibody, V domains shown)
VH: B17 VH with C52G
VL: B17 VL
notes: also called Test 4
B22: anti-CD55 antibody with CD55VH (SEQ ID NO: 14) N52S and VL (SEQ ID NO: 15) (antibody, V domains shown)
VH: B17 VH with C52S
VL: B17 VL
notes: also called Test 2
B23: anti-CD55 antibody with CD55VH (SEQ ID NO: 14) N52W and VL (SEQ ID NO: 15) (antibody, V domains shown)
VH: B17 VH with C52W
VL: B17 VL
notes: also called Test 7
B24: anti-CD55 antibody with CD55VH (SEQ ID NO: 14) N52L and VL (SEQ ID NO: 15) (antibody, V domains shown)
VH: B17 VH with C52L
VL: B17 VL
notes: also called Test 10
B25: anti-CD55 antibody with CD55VH (SEQ ID NO: 14) N100A and VL (SEQ ID NO: 15) (antibody, V domains shown)
VH: B17 VH with C52N, N100A
VL: B17 VL
notes: also called Test 20
B26: anti-CD55 antibody with CD55VH (SEQ ID NO: 14) N52P and VL (SEQ ID NO: 15) (antibody, V domains shown)
VH: B17 VH with C52P
VL: B17 VL
notes: also called Test 11
B27: anti-CD55 antibody with CD55VH (SEQ ID NO: 14) N52V and VL (SEQ ID NO: 15) (antibody, V domains shown)
VH: B17 VH with C52V
VL: B17 VL
notes: also called Test 5

Substitutions are numbered along the chain they refer to. Names may count otherwise.

One assay deals with CD3 (Homo sapiens (Human), UniProt P07766 23-207; P04234 22-171; P09693 23-182). Put plainly: cell-based or functional assay.
Sequence of CD3 (P07766 23-207 limits assumed, chain 1 of 3): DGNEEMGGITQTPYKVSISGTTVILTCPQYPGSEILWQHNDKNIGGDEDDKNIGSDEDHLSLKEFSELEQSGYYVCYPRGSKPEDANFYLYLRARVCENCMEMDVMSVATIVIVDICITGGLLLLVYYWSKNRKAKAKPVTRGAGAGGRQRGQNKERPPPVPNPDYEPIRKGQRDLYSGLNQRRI
Sequence of CD3 (P04234 22-171 limits assumed, chain 2 of 3): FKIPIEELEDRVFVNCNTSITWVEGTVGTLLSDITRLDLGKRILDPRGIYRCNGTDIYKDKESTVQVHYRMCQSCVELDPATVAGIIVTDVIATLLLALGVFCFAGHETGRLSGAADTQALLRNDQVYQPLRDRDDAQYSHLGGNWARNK
Sequence of CD3 (P09693 23-182 limits assumed, chain 3 of 3): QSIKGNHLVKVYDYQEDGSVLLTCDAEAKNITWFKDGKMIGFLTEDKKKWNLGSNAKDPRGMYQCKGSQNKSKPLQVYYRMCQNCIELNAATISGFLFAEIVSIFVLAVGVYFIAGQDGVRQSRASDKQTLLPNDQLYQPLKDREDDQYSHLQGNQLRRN
With B1, the “Function % 0.025 ug/ml (T cell activation, CD69 on Jurkat cells with Raji cells, against the unmutated baseline)” value (from here on “Function % 0.025 ug/ml”) is 100% and the “Function % 2 ug/ml (T cell activation, CD69 on Jurkat cells with Raji cells, against the unmutated baseline)” value (shortened to “Function % 2 ug/ml”) came out at 101%.
The corresponding values for B2 are 8% and 39%.
With B3, the “Function % 0.025 ug/ml” value is 109% and the “Function % 2 ug/ml” value came to 96%.
Regarding B4, the “Function % 0.025 ug/ml” value was 16% and the “Function % 2 ug/ml” value worked out at 77%.
With B5, the “Function % 0.025 ug/ml” value amounted to 8% and the “Function % 2 ug/ml” value was found to be 21%.
The corresponding values for B6 are 7% and 16%.
The corresponding values for B7 are 13% and 74%.
The corresponding values for B8 are 14% and 75%.
Regarding B9, the “Function % 0.025 ug/ml” value was found to be 12% and the “Function % 2 ug/ml” value amounted to 36%.
The corresponding values for B10 are 27% and 95%.
Consider B11, for which the “Function % 0.025 ug/ml” value came to 83% and the “Function % 2 ug/ml” value stood at 104%.
The corresponding values for B12 are 99% and 106%.
The corresponding values for B13 are 89% and 104%.
The corresponding values for B14 are 8% and 55%.
For the molecule B15, the “Function % 0.025 ug/ml” value was determined as 108% and the “Function % 2 ug/ml” value is 95%.
The corresponding values for B16 are 9% and 65%.

For another assay, the target named is T1, CD55. Put plainly: binding at 5 µg/ml against the unmutated antibody (SEQ ID NO: 14 + 15); format not stated.
Turning to B17, the “Function remaining percentage (5 µg/ml)” value is 32%.
On the same count and under the same terms, the value for B18 was 21%.
Same read-out and setting: with B19 the figure was 16%; with B20, 17%; with B21, 28%.
The same measure, in the same setting: with B22 the figure was 95%; with B23, 17%; with B24, 15%.
Take B25: the “Function remaining percentage (5 µg/ml)” value is 83%.
Same read-out and setting: the value for B26 was 11%.
With B27, the “Function remaining percentage (5 µg/ml)” value amounted to 21%.
